Results: US7521540B2, “CYR61 compositions and methods” (Munin Corporation, priority 1996, dated 2009)

B1: Fisp12: Cysteine-rich murine protein, SEQ ID NO:6, mouse ortholog of CTGF (protein, listed as Mus musculus)
chain: MLASVAGPISLALVLLALCTRPATGQDCSAQCQCAAEAAPHCPAGVSLVLDGCGCCRVCAKQLGELCTERDPCDPHKGLFCDFGSPANRKIGVCTAKDGAPCVFGGSVYRSGESFQSSCKYQCTCLDGAVGCVPLCSMDVRLPSPDCPFPRRVKLPGKCCKEWVCDEPKDRTAVGPALAAYRLEDTFGPDPTMMRANCLVQTTEWSACSKTCGMGISTRVTNDNTFCRLEKQSRLCMVRPCEADLEENIKKGKKCIRTPKIAKPVKFELSGCTSVKTYRAKFCGVCTDGRCCTPHRTTTLPVEFKCPDGEIMKKNMMFIKTCACHYNCPGDNDIFESLYYRKMYGDMA
B2: Cyr61: Cysteine-rich ECM signaling protein; murine sequence SEQ ID NO:2, recombinant from Baculovirus-infected Sf9 cells (protein, listed as Mus musculus)
chain: MSSSTFRTLAVAVTLLHLTRLALSTCPAACHCPLEAPKCAPGVGLVRDGCGCCKVCAKQLNEDCSKTQPCDHTKGLECNFGASSTALKGICRAQSEGRPCEYNSRIYQNGESFQPNCKHQCTCIDGAVGCIPLCPQELSLPNLGCPNPRLVKVSGQCCEEWVCDEDSIKDSLDDQDDLLGLDASEVELTRNNELIAIGKGSSLKRLPVFGTEPRVLFNPLHAHGQKCIVQTTSWSQCSKSCGTGISTRVTNDNPECRLVKETRICEVRPCGQPVYSSLKKGKKCSKTKKSPEPVRFTYAGCSSVKKYRPKYCGSCVDGRCCTPLQTRTVKMRFRCEDGEMFSKNVMMIQSCKCNYNCPHPNEASFRLYSLFNDIHKFRD

Assays:
HUVE cells = test: Thymidine incorporation (mitogen potentiation), HUVE cells; assay type: cell-based, human
Description: Human umbilical vein endothelial cells were plated essentially as described above for 3T3 cells and exposed to a constant amount of murine Cyr61; controls received no Cyr61. Different plates were then exposed to different levels of bFGF, comprising a series of bFGF concentrations ranging from 0-10 ng/ml. […] At 1 ng/ml bFGF, however, HUVE cells increased their thymidine incorporation in the presence of bFGF to 6×10^2 cpm; in the presence of 1 ng/ml bFGF and murine Cyr61, HUVE cells incorporated 1.3×10^3 cpm. At 10 ng/ml bFGF, cells exposed to bFGF incorporated about 1.8×10^3 cpm thymidine; cells receiving 10 ng/ml bFGF and Cyr61 incorporated approximately 6.1×10^3 cpm.
The capacity of murine Cyr61 to potentiate the mitogenic activity of bFGF was verified by a thymidine incorporation assay involving HUVE cells and various combinations of bFGF, Cyr61, and anti-Cyr61 antibodies. Cells were plated and grown as described above. The following combinations of supplements (final plate concentrations noted parenthetically) were then pre-incubated for 1 hour before addition to individual plates: 1) pre-immune antiserum (3%); 2) bFGF (15 ng/ml) and pre-immune antiserum (3%); 3) pre-immune antiserum (3%) and Cyr61 (4 μg/ml); 4) pre-immune antiserum (3%), Cyr61 (4 μg/ml), and bFGF (15 ng/ml); 5) anti-Cyr61 antiserum (3%); 6) anti-Cyr61 antiserum and bFGF (15 ng/ml); 7) anti-Cyr61 antiserum (3%) and Cyr61 (4 μg/ml); and 8) anti-Cyr61 antiserum (3%), Cyr61 (4 μg/ml), and bFGF (15 ng/ml).
DNA synthesis for HUVE cells and NIH 3T3 fibroblasts was measured by thymidine incorporation as described previously (Kireeva et al., [1996]) with minor modifications. HUVE cells were grown in 24-well plates to a subconfluent state, serum-starved for 24 hours and treated with F12K medium containing 10% fetal bovine serum (FBS), 1 μCi/ml [^3H]-thymidine and 10 ng/ml basic Fibroblast Growth Factor (bFGF) (Gibco-BRL, Inc.) with various concentrations of Cyr61 and Fisp12 as indicated. NIH 3T3 fibroblasts were grown to subconlfluence, serum-starved for 48 hours, and treated with Minimal Essential Medium (MEM) containing 0.5% FBS, 1 μCi/ml [^3H]-thymidine, bFGF and various concentrations of Cyr61 or Fisp12. Thymidine incorporation into the trichloroacetic acid-insoluble fraction was determined after 24 hour incubation. Logarithmically grown mink lung epithelial cells (Mv1lu, CCL64) were treated with various concentrations of TGF-β1 (Gibco-BRL) and 2 μg/ml of Cyr61 or Fisp12 for 18 hours; [^3H]-thymidine was then added to 1 μCi/ml for 2 hours. Thymidine incorporation was determnined as described above.

[1] = system: mink lung epithelial (Mv1Lu) cells; test: Fisp12 cell attachment assay, Mv1Lu cells; assay type: cell-based; settings: coating 20 μg/ml
Description: The capacity of Fisp12 to affect cell adhesion was also investigated. Fisp12 cell attachment assays were performed essentially as described (Oliver et al., [1989]). 96-well immunological plates were coated for 16 hours at 4° C. with 20 μg/ml Cyr61, Fisp12 or fibronectim (Gibco BRL) in PBS containing 0.1 mg/ml BSA and blocked with 10 mg/ml BSA for 1 hour at room temperature. HUVE cells were plated at 10^4 cells/well in F12K media with 10% FBS (Hyclone Laboratories, Inc., Logan, Utah); NIH 3T3 fibroblasts were plated at 3×10^4 cells/well and Mv1Lu cells were plated at 5×10^4 cells/well in minimal essential medium (MEM) with 10% FBS. After 1 hour incubation cells were fixed, stained with methylene blue and quantified as described (Oliver et al., [1989]). Cell spreading was examined on cells plated on 100 mm polystyrene petri dishes coated with 2.5 ml of a 20 μg/ml solution of Cyr61, Fisp12 or fibronectin. 10^7 cells were plated on each dish and cell spreading was analyzed 90 minutes after plating by microscopy at 100× magnification.

platelets = test: Platelet adhesion assay; assay type: cell-based, human; settings: for adhesion of unactivated platelets: PGl2 100 nM, coating 25 μg/ml; for adhesion of activated platelets: thrombin, U46619 or ADP
Description: Microtiter wells were coated with purified recombinant Fisp12/mCTGF or Cyr61, and the adhesion of isolated platelets to these proteins was detected with ^125I-mAb15, an anti-β3 monoclonal antibody (Frelinger et al., J. Biol. Chem 265:6346-6352 [1990]). Platelets were obtained from venous blood drawn from healthy donors and collected into acid-citrate-dextrose (ACD). Washed platelets were prepared by diffenential centrifugation as described (Kinlough-Rathbone et al. Thromb. Haemostas 2:291-308 [1997]), and finally resuspended in HEPES-Tyrode's buffer (5 mM HEPES, pH 7.35, 1 mM MgCl2, 1 mM CaCl2, 135 mM NaCl, 2.7 mM KCl, 11.9 mM NaHCO3, 1 mg/ml dextrose and 3.5 mg/ml BSA). The platelet concentration was adjusted to […].
Microtiter wells (Immulon 2 removawell strips, Dynex Technologies, Inc.) were coated with Cyr61, Fisp12/mCTGF, or fibrinogen (25 μg/ml, 50 μl/well) incubated overnight at 22° C., and then blocked with 3% BSA at 37° C. for 2 hours. Washed platelets were added to the wells (100 μl/well) in the presence and absence of platelet agonists and incubated at 37° C. for 30 minutes. The wells were washed with HEPES-Tyrode's buffer and adherent platelets were detected with ^125I-mAb15, an anti-β3 monoclonal antibody. Exposure to the labeled antibody ([…], 50 μl/well) proceeded for 1 hour at 22° C. After extensive washing with HEPES-Tyrode's buffer, bound radioactivity was determined by γ-counting. In inhibition studies, washed platelets were pre-incubated with blocking peptides or antibodies at 37° C. for 15 minutes prior to addition to microtiter wells.
The anti-β3 antibody was radioiodinated with carrier-free Na^125I (Amersham Corp.) using the IODO-BEADS iodination reagent (Pierce) to a specific activity of approximately 2 μCi/μg. […] As controls, BSA- and fibrinogen-coated (KabiVitrum Inc.) wells were also used. Initially, the adhesion of unactivated versus activated platelets to immobilized Fisp12/mCTGF and Cyr61 was compared. To ensure that plateltes were not activated during the washing procedures, PGl2 (100 nM), which inhibits activation by raising platelet cAMP levels, was added to the platelet suspensions. […]

Row | Molecule | enhancement of FGF-induced DNA synthesis (HUVE cells; HUVE-cells, bFGF 10 ng/ml) | cell attachment to coated dishes [1] | adhesion of unactivated platelets (platelets) | adhesion of activated platelets (platelets) | thymidine incorporation, baseline (HUVE cells; 0-0.1 ng/ml bFGF, presence or absence of Cyr61, 72 hours) | thymidine incorporation with bFGF and Cyr61 (HUVE cells; 1 ng/ml bFGF) | thymidine incorporation with bFGF and Cyr61 (HUVE cells; 10 ng/ml bFGF)
1 | B1 | enhance DNA synthesis induced by fibroblast growth factor | promoted the attachment | failed to adhere | dramatic increase in platelte adhesion |  |  | 
2 | B2 |  | promoted the attachment | failed to adhere | dramatic increase in platelte adhesion | approximately 4×10^2 cpm | 1.3×10^3 cpm | approximately 6.1×10^3 cpm
